Columns and labels:
Format in all cases: functional, cell-based
[1] = substrate: N[C@@H](CCC(=O)N[C@H](CSCCCCC/C=C/C=C1/C(=O)C=C[C@@H]1C/C=C\CCCC(=O)O)C(=O)NCC(=O)O)C(=O)O; assay: (§1) TP_TRANSPORTER: uptake in MRP3-expressing MCF7 cells
[2] = substrate: CN(Cc1cnc2nc(N)nc(N)c2n1)c1ccc(C(=O)N[C@@H](CCC(=O)O)C(=O)O)cc1; assay: as §1
[3] = substrate: N[C@@H](CCC(=O)N[C@H](CSCCCCC/C=C/C=C1/C(=O)C=C[C@@H]1C/C=C\CCCC(=O)O)C(=O)NCC(=O)O)C(=O)O; assay: (§2) TP_TRANSPORTER: uptake in MRP1-expressing MCF7 cells
[4] = substrate: CN(Cc1cnc2nc(N)nc(N)c2n1)c1ccc(C(=O)N[C@@H](CCC(=O)O)C(=O)O)cc1; assay: as §2

Protein	Km [1] [µM]	Km [2] [µM]	Km [3] [µM]	Km [4] [µM]
Multidrug resistance associated protein (Homo sapiens), Q96QA9 (protein) MDALCGSGELGSKFWDSNLSVHTENPDLTPCFQNSLLAWVPCIYLWVALPCYLLYLRHHCRGYIILSHLSKLKMVLGVLLWCVSWADLFYSFHGLVHGRAPAPVFFVTPLVVGVTMLLATLLIQYERLQGVQSSGVLIIFWFLCVVCAIVPFRSKILLAKAEGEISDPFRFTTFYIHFALVLSALILACFREKPPFFSAKNVDPNPYPETSAGFLSRLFFWWFTKMAIYGYRHPLEEKDLWSLKEEDRSQMVVQQLLEAWRKQEKQTARHKASAAPGKNASGEDEVLLGARPRPRKPSFLKALLATFGSSFLISACFKLIQDLLSFINPQLLSILIRFISNPMAPSWWGFLVAGLMFLCSMMQSLILQHYYHYIFVTGVKFRTGIMGVIYRKALVITNSVKRASTVGEIVNLMSVDAQRFMDLAPFLNLLWSAPLQIILAIYFLWQNLGPSVLAGVAFMVLLIPLNGAVAVKMRAFQVKQMKLKDSRIKLMSEILNGIKVLKLYAWEPSFLKQVEGIRQGELQLLRTAAYLHTTTTFTWMCSPFLVTLITLWVYVYVDPNNVLDAEKAFVSVSLFNILRLPLNMLPQLISNLTQASVSLKRIQQFLSQEELDPQSVERKTISPGYAITIHSGTFTWAQDLPPTLHSLDIQVPKGALVAVVGPVGCGKSSLVSALLGEMEKLEGKVHMKGSVAYVPQQAWIQNCTLQENVLFGKALNPKRYQQTLEACALLADLEMLPGGDQTEIGEKGINLSGGQRQRVSLARAVYSDADIFLLDDPLSAVDSHVAKHIFDHVIGPEGVLAGKTRVLVTHGISFLPQTDFIIVLADGQVSEMGPYPALLQRNGSFANFLCNYAPDEDQGHLEDSWTALEGAEDKEALLIEDTLSNHTDLTDNDPVTYVVQKQFMRQLSALSSDGEGQGRPVPRRHLGPSEKVQVTEAKADGALTQEEKAAIGTVELSVFWDYAKAVGLCTTLAICLLYVGQSAAAIGANVWLSAWTNDAMADSRQNNTSLRLGVYAALGILQGFLVMLAAMAMAAGGIQAARVLHQALLHNKIRSPQSFFDTTPSGRILNCFSKDIYVVDEVLAPVILMLLNSFFNAISTLVVIMASTPLFTVVILPLAVLYTLVQRFYAATSRQLKRLESVSRSPIYSHFSETVTGASVIRAYNRSRDFEIISDTKVDANQRSCYPYIISNRWLSIGVEFVGNCVVLFAALFAVIGRSSLNPGLVGLSVSYSLQVTFALNWMIRMMSDLESNIVAVERVKEYSKTETEAPWVVEGSRPPEGWPPRGEVEFRNYSVRYRPGLDLVLRDLSLHVHGGEKVGIVGRTGAGKSSMTLCLFRILEAAKGEIRIDGLNVADIGDPILFSGTLRMNLDPFGSYSEEDIWWALELSHLHTFVSSQPAGLDFQCSEGGENLSVGQRQLVCLARALLRKSRILVLDEATAAIDLETDNLIQATIRTQFDTCTVLTIAHRLNTIMDYTRVLVLDKGVVAEFDSPANLIAARGIFYGMARDAGLA	2.9	910	–	–
Multidrug resistance-associated protein 1 (Homo sapiens) (protein) MALRGFCSADGSDPLWDWNVTWNTSNPDFTKCFQNTVLVWVPCFYLWACFPFYFLYLSRHDRGYIQMTPLNKTKTALGFLLWIVCWADLFYSFWERSRGIFLAPVFLVSPTLLGITMLLATFLIQLERRKGVQSSGIMLTFWLVALVCALAILRSKIMTALKEDAQVDLFRDITFYVYFSLLLIQLVLSCFSDRSPLFSETIHDPNPCPESSASFLSRITFWWITGLIVRGYRQPLEGSDLWSLNKEDTSEQVVPVLVKNWKKECAKTRKQPVKVVYSSKDPAQPKESSKVDANEEVEALIVKSPQKEWNPSLFKVLYKTFGPYFLMSFFFKAIHDLMMFSGPQILKLLIKFVNDTKAPDWQGYFYTVLLFVTACLQTLVLHQYFHICFVSGMRIKTAVIGAVYRKALVITNSARKSSTVGEIVNLMSVDAQRFMDLATYINMIWSAPLQVILALYLLWLNLGPSVLAGVAVMVLMVPVNAVMAMKTKTYQVAHMKSKDNRIKLMNEILNGIKVLKLYAWELAFKDKVLAIRQEELKVLKKSAYLSAVGTFTWVCTPFLVALCTFAVYVTIDENNILDAQTAFVSLALFNILRFPLNILPMVISSIVQASVSLKRLRIFLSHEELEPDSIERRPVKDGGGTNSITVRNATFTWARSDPPTLNGITFSIPEGALVAVVGQVGCGKSSLLSALLAEMDKVEGHVAIKGSVAYVPQQAWIQNDSLRENILFGCQLEEPYYRSVIQACALLPDLEILPSGDRTEIGEKGVNLSGGQKQRVSLARAVYSNADIYLFDDPLSAVDAHVGKHIFENVIGPKGMLKNKTRILVTHSMSYLPQVDVIIVMSGGKISEMGSYQELLARDGAFAEFLRTYASTEQEQDAEENGVTGVSGPGKEAKQMENGMLVTDSAGKQLQRQLSSSSSYSGDISRHHNSTAELQKAEAKKEETWKLMEADKAQTGQVKLSVYWDYMKAIGLFISFLSIFLFMCNHVSALASNYWLSLWTDDPIVNGTQEHTKVRLSVYGALGISQGIAVFGYSMAVSIGGILASRCLHVDLLHSILRSPMSFFERTPSGNLVNRFSKELDTVDSMIPEVIKMFMGSLFNVIGACIVILLATPIAAIIIPPLGLIYFFVQRFYVASSRQLKRLESVSRSPVYSHFNETLLGVSVIRAFEEQERFIHQSDLKVDENQKAYYPSIVANRWLAVRLECVGNCIVLFAALFAVISRHSLSAGLVGLSVSYSLQVTTYLNWLVRMSSEMETNIVAVERLKEYSETEKEAPWQIQETAPPSSWPQVGRVEFRNYCLRYREDLDFVLRHINVTINGGEKVGIVGRTGAGKSSLTLGLFRINESAEGEIIIDGINIAKIGLHDLRFKITIIPQDPVLFSGSLRMNLDPFSQYSDEEVWTSLELAHLKDFVSALPDKLDHECAEGGENLSVGQRQLVCLARALLRKTKILVLDEATAAVDLETDDLIQSTIRTQFEDCTVLTIAHRLNTIMDYTRVIVLDKGEIQEYGAPSDLLQQRGLFYSMAKDAGLV	–	–	1.4	930
